Biological target: RBD protein of SARS-COV-1 (SARS-CoV-1, UniProt P59594 306-527)
Test: ELISA ('the same binding assay')

B1: FSR16m (designed binder)
chain: MGMEQKLISEEDLDGYIPEAPRDGQAYVRKDGEWVLLSTFLGGGGSLQGGGGSLQGSDLGKKLLEAARAGQDDEVRILMANGADVNALDLFGVTPLHLAAERGHLEIVEVLLKNGADVNAGDAFGRTPLHLAALGGHLEIVEVLLKNGADVNACDLYGVTPLHLAAGLGHLEIVEVLLKNGADVNAQDKFGKTAFDISIDNGNEDLAEILQSSSKLAAALEHHHHHH
B1: no binding.

Source: patent publication US20250179152A1 (TEXAS A AND M UNIVERSITY SYSTEM, published 2025)
